The text below walks through data of article PMC9618391 (2022).

B1: wild-type human sodium/iodide symporter (hNIS) [human] / μ1B (AP1M2) expressed from cDNA in COS-7 cells [not stated] (parent complex)
chain 1: MEAVETGERPTFGAWDYGVFALMLLVSTGIGLWVGLARGGQRSAEDFFTGGRRLAALPVGLSLSASFMSAVQVLGVPSEAYRYGLKFLWMCLGQLLNSVLTALLFMPVFYRLGLTSTYEYLEMRFSRAVRLCGTLQYIVATMLYTGIVIYAPALILNQVTGLDIWASLLSTGIICTFYTAVGGMKAVVWTDVFQVVVMLSGFWVVLARGVMLVGGPRQVLTLAQNHSRINLMDFNPDPRSRYTFWTFVVGGTLVWLSMYGVNQAQVQRYVACRTEKQAKLALLINQVGLFLIVSSAACCGIVMFVFYTDCDPLLLGRISAPDQYMPLLVLDIFEDLPGVPGLFLACAYSGTLSTASTSINAMAAVTVEDLIKPRLRSLAPRKLVIISKGLSLIYGSACLTVAALSSLLGGGVLQGSFTVMGVISGPLLGAFILGMFLPACNTPGVLAGLGAGLALSLWVALGATLYPPSEQTMRVLPSSAARCVALSVNASGLLDPALLPANDSSRAPSSGMDASRPALADSFYAISYLYYGALGTLTTVLCGALISCLTGPTKRSTLAPGLLWWDLARQTASVAPKEEVAILDDNLVKGPEELPTGNKKPPGFLPTNEDRLFFLGQKELEGAGSWTPCVGHDGGRDQQETNL
chain 2: MSASAVFILDVKGKPLISRNYKGDVAMSKIEHFMPLLVQREEEGALAPLLSHGQVHFLWIKHSNLYLVATTSKNANASLVYSFLYKTIEVFCEYFKELEEESIRDNFVIVYELLDELMDFGFPQTTDSKILQEYITQQSNKLETGKSRVPPTVTNAVSWRSEGIKYKKNEVFIDVIESVNLLVNANGSVLLSEIVGTIKLKVFLSGMPELRLGLNDRVLFELTGRSKNKSVELEDVKFHQCVRLSRFDNDRTISFIPPDGDFELMSYRLSTQVKPLIWIESVIEKFSHSRVEIMVKAKGQFKKQSVANGVEISVPVPSDADSPRFKTSVGSAKYVPERNVVIWSIKSFPGGKEYLMRAHFGLPSVEKEEVEGRPPIGVKFEIPYFTVSGIQVRYMKIIEKSGYQALPWVRYITQSGDYQLRTS

Variants of B1 are the subject of this assay. As to the kind of experiment: co-immunoprecipitation with Western blot quantification; COS-7 cells cotransfected with hNIS and μ1B; IP α-μ1B, WB α-hNIS; parent: 100; read off a plot. On the technique in general: Immunoblotting shows a protein as a band on a membrane.
As to chain 1 L562A, chain 1 L563A, the percent of parent is ~32 % Relative to hNIS WT. To chain 1 Y120A belongs ~83 % Relative to hNIS WT; to chain 1 L121A, ~60 % Relative to hNIS WT; to chain 1 L583A, ~5 % Relative to hNIS WT. The same measure for chain 1 L594A: ~84 % Relative to hNIS WT; for chain 1 Y118A: ~61 % Relative to hNIS WT. For chain 1 L587A, the percent of parent was ~100 % Relative to hNIS WT.
